Experimental data taken from patent US20050032039A1.

Target: HLA class I
Test: cell-based or functional assay

## W6/32, the class I-specific antibody
  reduction in HIV-1 envelope-specific CTL activity (PBMCs from LB as effector cells, E:T 25:1, 1:4 dilution of W6/32 hybridoma supernatant): 73%
  specific lysis value with W6/32 (PBMCs from LB, E:T 25:1): 6.2%
  specific lysis value without W6/32 (PBMCs from LB, E:T 25:1): 23.2%
